In US20170349905A1:

Tests used:
[1] = biological target: second domain of Cas9 protein (half domain comprising the C-terminus, beginning with the QG amino acids of the SGQG linker; NLS and HA tag at its C-terminus) (UniProt Q99ZW2); experiment: cell-based or functional assay
[2] = biological target: second domain of Cas9 protein delivered by adeno-associated virus vector (splicing acceptor linked t (UniProt Q99ZW2)); experiment: cell-based or functional assay
Chain of second domain of Cas9 protein delivered by adeno-associated virus vector (splicing acceptor linked t (Q99ZW2 716-1368 limits assumed): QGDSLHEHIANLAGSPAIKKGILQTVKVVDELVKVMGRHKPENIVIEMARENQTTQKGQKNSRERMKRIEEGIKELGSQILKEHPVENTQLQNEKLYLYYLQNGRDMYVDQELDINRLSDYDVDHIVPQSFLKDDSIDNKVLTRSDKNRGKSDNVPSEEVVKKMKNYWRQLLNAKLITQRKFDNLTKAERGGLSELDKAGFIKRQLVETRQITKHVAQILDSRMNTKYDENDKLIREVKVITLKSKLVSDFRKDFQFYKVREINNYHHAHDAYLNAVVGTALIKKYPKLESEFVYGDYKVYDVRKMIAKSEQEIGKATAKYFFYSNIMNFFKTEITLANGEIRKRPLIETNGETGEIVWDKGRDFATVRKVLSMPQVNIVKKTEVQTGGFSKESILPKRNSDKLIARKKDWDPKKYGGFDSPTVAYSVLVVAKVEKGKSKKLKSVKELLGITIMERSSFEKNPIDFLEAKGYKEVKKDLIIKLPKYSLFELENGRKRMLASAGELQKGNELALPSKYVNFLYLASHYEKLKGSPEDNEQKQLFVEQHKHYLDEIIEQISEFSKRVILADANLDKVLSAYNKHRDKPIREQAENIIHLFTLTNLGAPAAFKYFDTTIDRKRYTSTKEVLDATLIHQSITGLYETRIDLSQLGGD

Chain of second domain of Cas9 protein (half domain comprising the C-terminus, beginning with the QG amino acids of the SGQG linker; NLS and HA tag at its C-terminus) (Q99ZW2 716-1368): as the sequence (Q99ZW2 716-1368 limits assumed) above

Substance	Indel frequency in the CCR5 gene (next-generation sequencing) [1] [%]	Indel frequency in the DMD gene (next-generation sequencing) [1] [%]	Indel frequency in the HPRT gene (next-generation sequencing) [1] [%]	target sequence cleavage rate (DMD exon 51) in Hela cells co-infected with AAV, next-generation sequencing [2] [%]
first domain of Cas9 protein (half domain comprising the N-terminus, ending in the SG amino acids of the SGQG linker; HA tag and NLS at its N-terminus) (from UniProt Q99ZW2 1-715) (enzyme)	20.3	23.8	27.1	
first domain of Cas9 protein delivered by adeno-associated virus vector (splicing donor linked to the C-terminal region) (from UniProt Q99ZW2 1-715) (enzyme)				5
